From patent US7657380
Residue numbers refer to the chain shown, from its start. One block for each binder: values may come before it.

Target: EGFR extracellular domain (R&D Systems) (UniProt P00533 25-645, limits assumed)
Experiment: SPR, Fab over EGFR on CM5 chip

Kd: 0.257 nM | koff: 2.53e-05 s⁻¹ | kon: 98600 M⁻¹ s⁻¹
B1: ICR62 WT Fab (Fab, V domains shown)
VH: QVNLLQSGAALVKPGASVKLSCKGSGFTFTDYKIHWVKQSHGKSLEWIGYFNPNSGYSTYNEKFKSKATLTADKSTDTAYMELTSLTSEDSATYYCTRLSPGGYYVMDAWGQGASVTVSS
VL: DIQMTQSPSFLSASVGDRVTINCKASQNINNYLNWYQQKLGEAPKRLIYNTNNLQTGIPSRFSGSGSGTDYTLTISSLQPEDFATYFCLQHNSFPTFGAGTKLELK

Kd: 0.45 nM | koff: 0.000106 s⁻¹ | kon: 235000 M⁻¹ s⁻¹
B2: ICR62 L2/H9 Fab (Fab, V domains shown)
VH: QVQLQQSGPGLVKPGASVKVSCKGSGFTFTDYKIHWVRQAPGKSLEWMGYFNPNSGYSTYNEKFQGRVTITADKSTDTAYMELSSLRSEDTAVYYCTRLSPGGYYVMDAWGQGTLVTVSS
VL: B1 VL with F10S, N22T, K24R, L40P, E42K, L105I
